Values quoted from earlier work in paper PMC3245798.
pKd: −log10 of the molar value.

Molecular target: SLAM (Homo sapiens) (UniProt Q13291)
Conditions: cited from earlier work

Sequence of UniProt Q13291 (Q13291 21-335): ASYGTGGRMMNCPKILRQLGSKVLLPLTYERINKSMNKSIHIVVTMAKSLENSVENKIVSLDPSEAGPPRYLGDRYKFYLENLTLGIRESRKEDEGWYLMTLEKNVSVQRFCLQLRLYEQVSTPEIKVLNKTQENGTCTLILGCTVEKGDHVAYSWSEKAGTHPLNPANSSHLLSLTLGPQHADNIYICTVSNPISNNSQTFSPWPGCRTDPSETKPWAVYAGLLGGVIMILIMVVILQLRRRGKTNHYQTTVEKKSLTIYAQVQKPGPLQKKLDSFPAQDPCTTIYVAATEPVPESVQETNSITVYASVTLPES

## measles virus hemagglutinin (H) (from UniProt P08362)
  pKd: 7.10
